Data: US20250051443A1 (NATIONAL RESEARCH COUNCIL OF CANADA, published 2025)

Assays:
human CD3 [1] = target: T1, human CD3 (human, UniProt P07766 23-207; P09693 23-182; P04234 22-171); assay: flow cytometry, hybridoma supernatant on CD3+ Jurkat cells
T1 construct: whole, on cells; also called CD3 on Jurkat T cells; CD3 on primary human T cells
Procedure: Cells were stained with either negative control mouse IgG (Jackson Immunoresearch cat #115-000-003) or an anti-GFP 3E6 mAb supernatant or tested hybridoma supernatant. Specific binding was reflected by the increase in the mean fluorescent intensity of antibody binding to Jurkat T-cells (FIGS. 1A to 1F, grey histograms) compared to the Jurkat CD3 negative cell line J.RT3-T3.5 (FIGS. 1A to 1F, open histograms). AF488 labeled positive control mAb OKT3 was also analyzed.

human CD3 [2] = target: T1, human CD3; assay: cell-based or functional assay
human CD3 [3] = target: T1, human CD3; assay: flow competition on Jurkat, 100 nM unlabeled mAb; competitor AF488-OKT-3 mIgG2b 1.5 nM
Procedure: In order to evaluate whether anti-CD3 monoclonal antibodies bind to the same epitope region, flow cytometry competition experiments on Jurkat cells were performed.
To that effect, a fixed concentration of the indicated AF488-labeled mAb were incubated with 100 nM of unlabeled monoclonal antibodies to assess if their binding capacity was impaired in presence of unlabeled mAbs. […] The AF488-OKT3 mIgG2b was labeled in-house using AlexaFluor488 protein labelling kit (Invitrogen #A10235) following manufacturer's instruction. The free dye removal step was done using Zeba™ Spin Desalting Columns, 7K MWCO (Thermo Scientific #89890). The final product was analyzed by UPLC-SEC to ensure the integrity of the labeled mAb.

human CD3 [4] = target: T1, human CD3; assay: flow competition on Jurkat, 100 nM unlabeled mAb; competitor AF488-SP34.2 20 nM
How it was run: (§1)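 Jurkat cells incubated with a fixed concentration of AF488-labeled anti-CD3 mAb plus 100 nM unlabeled mAb, with competition read by flow cytometry as impaired labeled-mAb binding. In-house AF488-OKT3 mIgG2b was desalted and checked for integrity by UPLC-SEC.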

human CD3 [5] = target: T1, human CD3; assay: flow competition on Jurkat, 100 nM unlabeled mAb; competitor AF488-SK7 1.5 nM
How it was run: as §1

human CD3 [6] = target: T1, human CD3; assay: flow competition on Jurkat, 100 nM unlabeled mAb; competitor AF488-UCHT1 5 nM
How it was run: as §1

human CD3 [7] = target: T1, human CD3; assay: cell-based or functional assay; remark: listed apart in the source
human CD3 [8] = target: T1, human CD3; assay: apparent KD (KDapp), flow cytometry titration on purified primary human T cells
How it was run: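 Freshly isolated human T cells from PBMCs (negative pan-T selection), 1×10⁵ per test, stained 2 h at 4 °C with eight-point mAb dilutions from 300 or 100 nM, then APC anti-mouse IgG secondary 30 min. Background-subtracted flow MFI fitted by one-site specific binding with Hill slope for KDapp.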

human CD3 [9] = target: T1, human CD3; assay: apparent KD (KDapp), flow cytometry titration on Jurkat cells
How it was run: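 Jurkat cells incubated 2 h on ice with 1/3 serial dilutions of purified mouse mAbs from 300 nM, then FITC anti-mouse Fc F(ab′)2 for 1 h. Binding read by flow cytometry on 2,000 viable single cells, with propidium iodide exclusion.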

- MFI (human CD3 [1]): 285 MFI
- IC50, indirect ADC surrogate growth inhibition (anti-mouse-DM1) on Jurkat cells (human CD3 [2]): 0.045 nM
- Span, indirect ADC surrogate growth inhibition on Jurkat cells (human CD3 [2]): 96%
- % residual fluorescence of labeled mAb (human CD3 [3]): 82%
- % residual fluorescence of labeled mAb (human CD3 [4]): 9%
- % residual fluorescence of labeled mAb (human CD3 [5]): 42%
- % residual fluorescence of labeled mAb (human CD3 [6]): 68%
- % max ref. OKT3 (dTomato activation) (human CD3 [7]): 91%
- EC50 of dTomato induction (CD69 promoter), Jurkat-CD69-dTomato cells, 24 h (human CD3 [7]): 0.24 µg/mL
- Kd (human CD3 [8]): 0.16 nM
- Kd (human CD3 [9]): 0.5 nM
B1: F332-7C9 (antibody, mouse IgG2a, V domains shown)
VH: QVQLQQSGPELVKPGASVRISCKASGYTFTSHYLHWVKQRPGQGFEWIGWIYPGDGNTRYNEKFKDRATLTADKSSSTAYLHLSSLTSEDSAVYFCARDAGYYFDYWGQGTTLAVSS
VL: DIVMSQSPSSLAVSAGEKVTMSCKSSQSLLNSRTRKNYLAWYQQKPGQSLKVLIYWASTRESGVPDRFTGSGSGTDFTLTISSVQAEDLAVYYCKQSYSLRTFGGGTKLEIK
notes: also called F332-7C9-2; F332-7C9 (5C7, 7D10)
